Patent US20220242939A1 (BIOARCTIC, published 2022)
Non-standard residues stand in square brackets, D forms with d. No end group written: not given here. Ahx = NCCCCCC(=O)O

What was measured:
[1] = biological target: T1, recombinant C-terminal ApoE fragment L198-HIS (ApoE-L198-H299-10xHIS) (human, UniProt P02649 216-317); experiment: direct ELISA, L198-HIS coated at 0.1 µM
T1 construct: also called L198-HIS fragment
Description: (§1) Selectivity evaluation of purified monoclonal antibodies by direct ELISA: The direct ELISA described below was used to evaluate the binding selectivity of the purified monoclonal antibodies produced in Example 14.
(§2) The screening was performed according to standard ELISA protocols. Briefly, 1 μg/ml solutions of BSA-conjugated neo-epitope peptides and negative control peptide, and 0.1 μM recombinant C-terminal ApoE fragment and full-length ApoE (Abcam, cat. no. ab50243) were prepared by dilution in PBS. 50 μl/well were added to an ELISA half-area 96 well microtiter plate, and the plate was sealed with adhesive sealer and incubated over night at 4° C. After discarding the solution, the plates were blocked with 150 μl/well of protein-free blocking solution (Pierce) for 1 h at room temperature with shake (600-900 rpm). The plates were washed four times with washing buffer containing 0.28 mM NaH₂PO₄, 2.5 mM Na₂HPO₄, 150 mM NaCl, 0.1% TWEEN®-20 and 0.0075% Kathon CG. Purified monoclonal antibodies of interest were 3-fold serially diluted with a starting dilution at 3 μg/ml (mixed 1:2 with dilution buffer (PBS with 0.1% BSA and 0.05% TWEEN®-20)). An anti-ApoE C-terminal antibody was used as a reference antibody (ApoE E-8 mouse monoclonal, Santa Cruz Biotechnology, cat. no. sc-393302). 50 μl/well were added into the ELISA plates and incubated for 2 h at room temperature with shake (600-900 rpm). The plates were washed four times as described previously. […] After another wash (as described previously), 50 μl/well of K-Blue® aqueous substrate (Neogen) were added, and the reaction was stopped after 5-15 min with 50 μl/well of 0.5 M […]. The optical density at 450 nm was read using an ELISA reader (Tecan).

[2] = biological target: T2, full-length ApoE in human brain extract from Alzheimer's disease patients (human, UniProt P02649 19-317); experiment: Western blot of AD brain RIPA 2% SDS extract; monoclonal antibody at 2 ug/ml as primary antibody
T2 construct: mature; Endogenous protein on Western blot or in solution (IP); also called ApoE full-length protein
T2 sequence (P02649 19-317): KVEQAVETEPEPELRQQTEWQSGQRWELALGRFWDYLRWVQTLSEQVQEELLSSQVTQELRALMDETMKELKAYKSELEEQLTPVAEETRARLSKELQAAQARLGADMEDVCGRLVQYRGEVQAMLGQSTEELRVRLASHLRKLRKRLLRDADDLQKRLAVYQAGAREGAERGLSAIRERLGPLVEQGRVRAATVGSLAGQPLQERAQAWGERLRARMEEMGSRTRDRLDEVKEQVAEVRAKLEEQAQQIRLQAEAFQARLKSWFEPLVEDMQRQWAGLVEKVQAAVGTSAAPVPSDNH

[3] = biological target: T3, L198 N-terminal neo-epitope peptide LAGQPL-Acp-C (SEQ ID NO:52) conjugated to BSA (human, not fully specified (residue 8); printed as LAGQPL-Acp-C; also: C-terminal Cys conjugated to BSA carrier); experiment: direct ELISA, L198-BSA peptide coated at 1 µg/ml
T3 construct: BSA carrier; also called L198-BSA peptide
T3 peptide: LAGQPL[Ahx]C
Description: as §1, §2

[4] = biological target: T4, L198 N-terminal neo-epitope peptide LAGQPLQE-Acp-C (SEQ ID NO:54) conjugated to BSA (human, not fully specified (residue 10); printed as LAGQPLQE-Acp-C; also: C-terminal Cys conjugated to BSA carrier); experiment: direct ELISA after limiting dilution
T4 construct: BSA carrier
T4 peptide: LAGQPLQE[Ahx]C

[5] = biological target: T1, recombinant C-terminal ApoE fragment …; experiment: SPR (Biacore 8K), L198-HIS amine-coupled on CM5, antibody as analyte, bivalent analyte fit (kd1)
Description: (§3) Selectivity evaluation and KD determination of purified monoclonal antibodies by surface plasmon resonance: Binding interactions between the antigens and antibodies were evaluated by surface plasmon resonance (SPR) using a Biacore 8K instrument (GE Healthcare) according to standard procedures.
(§4) Selectivity evaluation and KD determination of purified monoclonal antibodies by surface plasmon resonance: The five purified monoclonal antibodies 6F4, 8B3, 12B1, 15F8 and 15H11 were evaluated for selectivity, and KD values for the target antigen were determined by surface plasmon resonance.

[6] = biological target: T1, recombinant C-terminal ApoE fragment …; experiment: SPR (Biacore 8K), L198-HIS amine-coupled on CM5, antibody as analyte, bivalent analyte fit (KD1)
Description: as §3, §4

[7] = biological target: T1, recombinant C-terminal ApoE fragment …; experiment: SPR (Biacore 8K), L198-HIS amine-coupled on CM5, antibody as analyte, bivalent analyte fit (ka1)
[8] = biological target: 36A12, monoclonal anti-A199 antibody; experiment: inhibition ELISA: antigen in solution varied, antibody 36A12 at 0.05 µg/ml, plate coated with A199-BSA peptide
Chain of 36A12, monoclonal anti-A199 antibody (VH, as listed by the source, chain 1 of 2): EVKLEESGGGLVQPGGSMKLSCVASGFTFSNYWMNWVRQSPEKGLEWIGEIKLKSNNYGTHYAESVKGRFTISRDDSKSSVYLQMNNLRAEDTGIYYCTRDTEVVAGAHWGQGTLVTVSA
Chain of 36A12, monoclonal anti-A199 antibody (VL, as listed by the source, chain 2 of 2): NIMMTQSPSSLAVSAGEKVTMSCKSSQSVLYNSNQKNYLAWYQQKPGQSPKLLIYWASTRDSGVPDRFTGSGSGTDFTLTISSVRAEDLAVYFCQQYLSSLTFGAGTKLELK
Description: (§5) 0.5 μg/ml solution of N-terminal neo-epitope peptide A199 (SEQ ID NO:51) conjugated to BSA was prepared by dilution in PBS. 50 μl/well were added to an ELISA half-area 96 well microtiter plate, the plate was sealed with adhesive sealer and incubated over night at 4° C. After discarding the solution, the plates were blocked with protein-free blocking solution (Pierce) (150 μl/well) at room temperature for 90 min with shaking (900 rpm). The blocked plate was washed four times with washing buffer containing 0.28 mM NaH₂PO₄, 2.5 mM Na₂HPO₄, 150 mM NaCl, 0.1% TWEEN®-20 and 0.0075% Kathon CG.
(§6) Serial dilutions of each synthetic ApoE peptide were prepared by 4-fold dilution starting from 10000 ng/ml in 96 well storage plates (30 μl final volume). Each purified monoclonal antibody to be tested was added (30 μl) to the serial dilutions of each of the synthetic ApoE peptides at a final concentration of 0.05 μg/ml per well. […]
(§7) The pre-incubated samples were transferred (50 μl/well) to the blocked ELISA plates, and plates were incubated for 10 min at room temperature without shaking. […] Alkaline phosphatase substrate (50 μl/well) was added to the plate and the optical density was read every 10 min at a wavelength of 405 nm for up to 120 min. The IC50 values were determined from a log inhibitor concentration response curve (FIG. 29).

[9] = biological target: 6F4, monoclonal anti-L198 antibody; experiment: inhibition ELISA; antibody at 0.05 ug/ml pre-incubated with the peptide in solution (4-fold dilutions from 10000 ng/ml), then on a plate coated with L198-BSA peptide; blank reduced OD 405 nm
Chain of 6F4, monoclonal anti-L198 antibody (VH, as listed by the source, chain 1 of 2): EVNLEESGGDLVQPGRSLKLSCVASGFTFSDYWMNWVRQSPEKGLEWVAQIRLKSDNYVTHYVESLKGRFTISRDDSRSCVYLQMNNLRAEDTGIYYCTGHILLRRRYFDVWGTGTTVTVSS
Chain of 6F4, monoclonal anti-L198 antibody (VL, as listed by the source, chain 2 of 2): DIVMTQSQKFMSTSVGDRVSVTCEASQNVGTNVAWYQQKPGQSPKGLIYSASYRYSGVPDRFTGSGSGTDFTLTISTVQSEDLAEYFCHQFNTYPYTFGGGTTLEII
Description: as §5, with “L198” for “A199”, “NO:52)” for “NO:51)”
(§8) Serial dilutions of each synthetic ApoE peptide were prepared by 4-fold dilution starting from 10000 ng/ml in 96 well storage plates (30 μl final volume). Each recombinant antibody to be tested was added (30 μl) to the serial dilutions of each of the synthetic ApoE peptides at a final concentration of 0.05 μg/ml per well. Samples were pre-incubated for 45 min at room temperature with shaking (900 rpm).
(§9) The pre-incubated samples were transferred (50 μl/well) to the blocked ELISA plates, and plates were incubated for 10 min at room temperature without shaking. Plates were washed as described above. Alkaline phosphatase conjugated anti-mouse IgG detection antibody (Mabtech, cat. no. 3310-4) was diluted 1:1000 and added to each plate (50 μl/well). The plate was sealed and incubated with shaking (900 rpm) for 45 min at room temperature and subsequently washed as described above. Alkaline phosphatase substrate (50 μl/well) was added to the plate and the optical density was read every 10 min at a wavelength of 405 nm for up to 120 min. The IC50 values were determined from a log inhibitor concentration response curve (FIG. 25).

[10] = biological target: T5, 7B10, recombinant IgG2c antibody; experiment: inhibition ELISA, second protocol; antibody at 0.05 ug/ml pre-incubated with the peptide in solution (4-fold dilutions from 10000 ng/ml), then on a plate coated with G200-BSA peptide; blank reduced OD 405 nm
T5 construct: also called 7610
T5 sequence (VH, as listed by the source, chain 1 of 2): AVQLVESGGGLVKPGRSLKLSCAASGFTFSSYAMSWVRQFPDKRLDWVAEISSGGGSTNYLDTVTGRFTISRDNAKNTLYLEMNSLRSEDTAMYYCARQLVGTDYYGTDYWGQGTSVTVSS
T5 sequence (VL, as listed by the source, chain 2 of 2): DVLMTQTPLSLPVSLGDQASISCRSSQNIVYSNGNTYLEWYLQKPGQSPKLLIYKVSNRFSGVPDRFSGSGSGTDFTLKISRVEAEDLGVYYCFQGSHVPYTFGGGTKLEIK
Description: as §8, with “[…]” for “Serial”, “peptide, recombinant C-terminal ApoE fragment G200-HIS and full-length ApoE4” for “peptide”, “1000” for “10000”, “peptides, G200-HIS or full-length ApoE4” for “peptides”
as §9, with “for 25” for “for 10”, “every 15” for “every 10”, “(FIG. 17).” for “(FIG. 25).”
(§10) In addition, a second inhibition ELISA with the ApoE peptides conjugated to BSA was run, in which the starting concentration of the antigens in solution was increased 10-fold. i.e. the starting concentration of the N-terminal neo-epitope of synthetic ApoE peptides conjugated to BSA and starting at amino acid L198 (SEQ ID NO:52), A199 (SEQ ID NO:51) or G200 (SEQ ID NO:50), or to BSA-conjugated negative control peptide (SEQ ID NO:53), was 10000 ng/ml. Furthermore, a 4-fold serial dilution of antigen was used, the plates were blocked with protein-free blocking solution (Pierce) for 90 min, the pre-incubated samples were incubated on the coated plates for 10 min (instead of 25 min), and the optical density was read every 10 min (instead of every 15 min). IC50 values were determined from a log inhibitor concentration response curve (FIG. 20).

[11] = biological target: 7C7, recombinant IgG2c antibody; experiment: as above
Chain of 7C7, recombinant IgG2c antibody (VH, as listed by the source, chain 1 of 2): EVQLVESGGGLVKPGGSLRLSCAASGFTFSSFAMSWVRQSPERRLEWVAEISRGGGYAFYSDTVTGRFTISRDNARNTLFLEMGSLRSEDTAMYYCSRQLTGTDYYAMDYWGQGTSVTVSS
Chain of 7C7, recombinant IgG2c antibody (VL, as listed by the source, chain 2 of 2): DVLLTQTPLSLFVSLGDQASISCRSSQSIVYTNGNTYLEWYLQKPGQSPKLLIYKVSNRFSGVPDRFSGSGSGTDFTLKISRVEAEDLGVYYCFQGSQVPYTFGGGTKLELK
Description: as §8, with “[…]” for “Serial”, “peptide, recombinant C-terminal ApoE fragment G200-HIS and full-length ApoE4” for “peptide”, “1000” for “10000”, “peptides, G200-HIS or full-length ApoE4” for “peptides”
as §9, with “for 25” for “for 10”, “every 15” for “every 10”, “(FIG. 17).” for “(FIG. 25).”
as §10

[12] = biological target: 17G4, recombinant IgG2c antibody; experiment: as above
Chain of 17G4, recombinant IgG2c antibody (VH, as listed by the source, chain 1 of 2): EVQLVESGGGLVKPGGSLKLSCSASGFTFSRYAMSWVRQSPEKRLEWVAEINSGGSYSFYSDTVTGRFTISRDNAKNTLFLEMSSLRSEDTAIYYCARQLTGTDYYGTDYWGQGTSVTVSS
Chain of 17G4, recombinant IgG2c antibody (VL, as listed by the source, chain 2 of 2): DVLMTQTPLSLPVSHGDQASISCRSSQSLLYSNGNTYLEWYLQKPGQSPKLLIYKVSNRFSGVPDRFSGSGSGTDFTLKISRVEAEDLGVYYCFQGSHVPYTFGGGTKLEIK
Description: as §8, with “[…]” for “Serial”, “peptide, recombinant C-terminal ApoE fragment G200-HIS and full-length ApoE4” for “peptide”, “1000” for “10000”, “peptides, G200-HIS or full-length ApoE4” for “peptides”
as §9, with “for 25” for “for 10”, “every 15” for “every 10”, “(FIG. 17).” for “(FIG. 25).”
as §10

[13] = biological target: 23D5, recombinant IgG2c antibody; experiment: as above
Chain of 23D5, recombinant IgG2c antibody (VH, as listed by the source, chain 1 of 2): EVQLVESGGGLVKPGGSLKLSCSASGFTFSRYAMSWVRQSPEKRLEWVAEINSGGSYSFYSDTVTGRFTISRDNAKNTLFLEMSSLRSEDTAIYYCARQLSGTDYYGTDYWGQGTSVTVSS
Description: as §8, with “[…]” for “Serial”, “peptide, recombinant C-terminal ApoE fragment G200-HIS and full-length ApoE4” for “peptide”, “1000” for “10000”, “peptides, G200-HIS or full-length ApoE4” for “peptides”
as §9, with “for 25” for “for 10”, “every 15” for “every 10”, “(FIG. 17).” for “(FIG. 25).”
as §10

[14] = biological target: 38G9, monoclonal anti-A199 antibody; experiment: inhibition ELISA: antigen in solution varied, antibody 38G9 at 0.05 µg/ml, plate coated with A199-BSA peptide
Chain of 38G9, monoclonal anti-A199 antibody (VH, as listed by the source, chain 1 of 2): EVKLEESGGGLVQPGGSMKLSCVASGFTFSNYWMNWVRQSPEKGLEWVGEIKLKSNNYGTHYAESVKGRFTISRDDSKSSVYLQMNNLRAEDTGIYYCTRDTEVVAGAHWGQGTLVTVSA
Chain of 38G9, monoclonal anti-A199 antibody (VL, as listed by the source, chain 2 of 2): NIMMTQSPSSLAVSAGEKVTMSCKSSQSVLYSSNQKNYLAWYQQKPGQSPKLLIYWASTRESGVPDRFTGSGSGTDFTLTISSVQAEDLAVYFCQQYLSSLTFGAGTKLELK
Description: as §5, §6, §7

[15] = biological target: 67G3, monoclonal anti-A199 antibody; experiment: inhibition ELISA: antigen in solution varied, antibody 67G3 at 0.05 µg/ml, plate coated with A199-BSA peptide
Chain of 67G3, monoclonal anti-A199 antibody (VH, as listed by the source, chain 1 of 2): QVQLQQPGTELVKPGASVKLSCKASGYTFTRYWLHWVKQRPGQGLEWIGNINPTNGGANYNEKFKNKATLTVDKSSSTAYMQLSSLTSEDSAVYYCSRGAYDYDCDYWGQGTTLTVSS
Chain of 67G3, monoclonal anti-A199 antibody (VL, as listed by the source, chain 2 of 2): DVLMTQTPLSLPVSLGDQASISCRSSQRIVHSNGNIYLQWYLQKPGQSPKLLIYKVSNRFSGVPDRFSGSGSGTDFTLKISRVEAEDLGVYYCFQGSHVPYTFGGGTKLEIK
Description: as §5, §6, §7

[16] = biological target: 63F6, monoclonal anti-A199 antibody; experiment: inhibition ELISA: antigen in solution varied, antibody 63F6 at 0.05 µg/ml, plate coated with A199-BSA peptide
Chain of 63F6, monoclonal anti-A199 antibody (VH, as listed by the source, chain 1 of 2): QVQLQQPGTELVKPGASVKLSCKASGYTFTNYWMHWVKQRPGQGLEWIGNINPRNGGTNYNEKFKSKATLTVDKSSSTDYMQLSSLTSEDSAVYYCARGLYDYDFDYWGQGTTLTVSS
Chain of 63F6, monoclonal anti-A199 antibody (VL, as listed by the source, chain 2 of 2): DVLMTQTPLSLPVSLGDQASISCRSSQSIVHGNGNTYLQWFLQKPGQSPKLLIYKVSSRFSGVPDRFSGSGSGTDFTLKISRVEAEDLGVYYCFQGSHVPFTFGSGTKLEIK
Description: as §5, §6, §7

T1 sequence (P02649 other isoform, or with tags, fused parts or gaps limits assumed): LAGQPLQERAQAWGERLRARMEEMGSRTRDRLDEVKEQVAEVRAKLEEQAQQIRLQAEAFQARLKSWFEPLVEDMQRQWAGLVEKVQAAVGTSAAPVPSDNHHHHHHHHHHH

B1: 8B3, monoclonal anti-L198 antibody (antibody, IgG2b, V domains shown)
VH: EVKVEESGGGVVQPGGSMKLSCLASGFTFRNYWMNWVRQSPEKGLEWVAQIRLKSDNYATRYAESVKGRFTISRDDSKSSVYLQMNNLRAEDTGTYYCSGHILLRYYALDFWGQGTSVTVSS
VL: DIVLTQSQKFMSTSVGDRVSVTCKASQNVYTDVAWYQQKPGQSPKGMIYSASYRYSGVPDRFTGSGSGTDFTLKISNVQSEDLAEYFCQQYNSFPYTFGGGTKLEIK
With B1 the EC50 [1] was 1.3 ng/mL, the binding result [2] was “no binding (tested: 2 ug/ml (text))” and the EC50 [3] was 8.4 ng/mL. For the same binder, the binding result [4] was “binds”, the koff [5] was 0.000302 s⁻¹ and the Kd [6] was 12 nM. It also gave a kon [7] of 42000 M⁻¹ s⁻¹.

B2: A199 N-terminal neo-epitope peptide AGQPLQ-Acp-C (SEQ ID NO:51) conjugated to BSA (peptide)
peptide: AGQPLQ[Ahx]C
modifications: not fully specified (residue 8); printed as AGQPLQ-Acp-C; also: C-terminal Cys conjugated to BSA carrier
notes: BSA carrier; also called A199-BSA peptide
B2 was tested, and the IC50 [8] was 27.7 ng/mL, the binding result [9] was “no binding (tested: 10000 ng/ml)” and the binding result [10] was “no binding (tested: 10000 ng/ml)”. B2: no binding (tested: 10000 ng/ml) [11]; no binding (tested: 10000 ng/ml) [12]; no binding (tested: 10000 ng/ml) [13]. It also gave an IC50 [14] of 52.6 ng/mL, an IC50 [15] of 2.9 ng/mL and an IC50 [16] of 2.5 ng/mL.
